Where no end group is shown, it is not given here. [ ]: non-standard residue; d: D form. Ahx = NCCCCCC(=O)O
B1: β-catenin (natural protein)
chain: MATQADLMELDMAMEPDRKAAVSHWQQQSYLDSGIHSGATTTAPSLSGKGNPEEEDVDTSQVLYEWEQGFSQSFTQEQVADIDGQYAMTRAQRVRAAMFPETLDEGMQIPSTQFDAAHPTNVQRLAEPSQMLKHAVVNLINYQDDAELATRAIPELTKLLNDEDQVVVNKAAVMVHQLSKKEASRHAIMRSPQMVSAIVRTMQNTNDVETARCTAGTLHNLSHHREGLLAIFKSGGIPALVKMLGSPVDSVLFYAITTLHNLLLHQEGAKMAVRLAGGLQKMVALLNKTNVKFLAITTDCLQILAYGNQESKLIILASGGPQALVNIMRTYTYEKLLWTTSRVLKVLSVCSSNKPAIVEAGGMQALGLHLTDPSQRLVQNCLWTLRNLSDAATKQEGMEGLLGTLVQLLGSDDINVVTCAAGILSNLTCNNYKNKMMVCQVGGIEALVRTVLRAGDREDITEPAICALRHLTSRHQEAEMAQNAVRLHYGLPVVVKLLHPPSHWPLIKATVGLIRNLALCPANHAPLREQGAIPRLVQLLVRAHQDTQRRTSMGGTQQQFVEGVRMEEIVEGCTGALHILARDVHNRIVIRGLNTIPLFVQLLYSPIENIQRVAAGVLCELAQDKEAAEAIEAEGATAPLTELLHSRNEGVATYAAAVLFRMSEDKPQDYKKRLSVELTSSLFRTEPMAWNETADLGLDIGAQGEPLGYRQDDPSYRSFHSGGYGQDALGMDPMMEHEMGGHHPGADYPVDGLPDLGHAQDLMDGLPPGDSNQLAWFDTDL
B2: xStAx (peptide)
chain: Ac-RRWPQLILDLHVRRVWR
modifications: staple (positions not given here); not fully specified (C-terminus); also: further groups not given here
B3: xStAx-VHLL (peptide)
chain: RRWPQLILDLHVRRVWR[Ahx]ALAPYIP
modifications: staple (positions not given here); not fully specified (C-terminus); also: further groups not given here

Legend:
Assay in all cases: ITC
SAHPA1 = SAHPA1 (stapled: side chains of olefin residues (S5, R8) cross-linked by ring-closing metathesis, positions in Figure 1a; N-terminus treated with acetic anhydride (typical protocol))
SAHPA1-VHLL = SAHPA1-VHLL (stapled: side chains of olefin residues (S5, R8) cross-linked by ring-closing metathesis, positions in Figure 1a; 6-aminocaproic acid (Ahx) linker between the stapled peptide and the VHL ligand)
β-catenin [1] = molecular target: B1
β-catenin [2] = molecular target: B1

Ka (SAHPA1) [M⁻¹] | Kd (SAHPA1) [µM] | Ka (SAHPA1-VHLL) [M⁻¹] | Kd (SAHPA1-VHLL) [µM] | Ka (β-catenin [1]) [M⁻¹] | Kd (β-catenin [2]) [µM] | Binder
26400 | 38 | 18100 | 55 | – | – | B1
– | – | – | – | 27000 | 37 | B2
– | – | – | – | – | 12 | B3
